{"source": "paper PMC10182041", "about": "“A first-in-class inhibitor of Hsp110 molecular chaperones of pathogenic fungi” (Nature Communications, 2023)", "molecular_target": "T1, Msi3, the sole Hsp110 of Candida albicans (Candida albicans, UniProt Q96VB9 1-701)", "T1 construct": "Msi3 (Hsp110) of Candida albicans; ORF amplified from genomic DNA and cloned into the pSMT3 vector; source: E. coli Rosetta2(DE3)pLysS, purified (HisTrap, Ulp1 cleavage, second HisTrap, HiTrap Q); not shown: His6, N-terminal, cleaved; Smt3, N-terminal, cleaved", "T1 sequence (looked up)": "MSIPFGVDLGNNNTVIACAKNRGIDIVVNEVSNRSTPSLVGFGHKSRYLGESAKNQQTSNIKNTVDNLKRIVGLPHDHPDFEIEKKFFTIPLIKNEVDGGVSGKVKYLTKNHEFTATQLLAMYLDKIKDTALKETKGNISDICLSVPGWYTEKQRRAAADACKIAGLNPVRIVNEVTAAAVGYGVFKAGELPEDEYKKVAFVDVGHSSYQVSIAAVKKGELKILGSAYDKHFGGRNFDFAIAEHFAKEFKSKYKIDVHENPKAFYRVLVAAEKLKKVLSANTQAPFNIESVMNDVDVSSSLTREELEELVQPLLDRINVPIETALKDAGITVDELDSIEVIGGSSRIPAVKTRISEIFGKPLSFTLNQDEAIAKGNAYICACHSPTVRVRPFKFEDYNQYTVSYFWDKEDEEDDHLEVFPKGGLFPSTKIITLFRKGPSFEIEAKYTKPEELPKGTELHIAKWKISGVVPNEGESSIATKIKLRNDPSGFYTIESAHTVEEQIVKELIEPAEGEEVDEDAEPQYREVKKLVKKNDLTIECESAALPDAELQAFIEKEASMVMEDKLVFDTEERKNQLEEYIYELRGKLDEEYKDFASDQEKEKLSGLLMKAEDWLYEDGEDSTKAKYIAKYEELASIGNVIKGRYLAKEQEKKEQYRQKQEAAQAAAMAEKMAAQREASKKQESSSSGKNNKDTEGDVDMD", "assay": "native gel or EMSA; Msi3 (5 uM) and Ssa1 (10 uM) mixed with 2 mM ATP in buffer D (25 mM Hepes-KOH pH 7.5, 50 mM KCl, 10 mM Mg(OAc)2, 1 mM DTT), 45 min on ice; 10% native gel, Coomassie; with or without 100 uM 2H", "conditions": "both partners purified"}
{"binder": "Ssa1, the major cytosolic Hsp70 of S. cerevisiae (natural protein, Ssa1, Hsp70 from Saccharomyces cerevisiae; source: Pichia pastoris GS115, purified (HiTrap Q, butyl-Sepharose, ATP agarose)) not shown", "values": [{"measurement": "binding result", "result": "binds"}]}
